Reference: US20150166988A1 (Bicycle, published 2015)
Like-named read-outs stand apart in the source and are kept apart here. *1 amine or outer side, *2 acyl side, *3 side chain or, on linkers, in order; H or OH if unused. Bridges are numbered along the chain shown (N, C = ends). TBMB = c1c(C[*:1])cc(C[*:3])cc1C[*:2]

Assays:
[1] = target: T1, human plasma kallikrein (activated with factor XIIa) (human, UniProt P03952 20-638); assay: cell-based or functional assay
[2] = target: T1, human plasma kallikrein (activated with …); assay: cell-based or functional assay; remark: listed apart in the source
human factor XIa = human factor XIa (human, UniProt P03951 19-625); assay: cell-based or functional assay
human thrombin = human thrombin (human, UniProt P00734 328-622); assay: cell-based or functional assay
[3] = target: recombinant mouse plasma kallikrein (activated with thermolysin) (mouse, UniProt P26262 20-638); assay: cell-based or functional assay
recombinant mouse plasma kallikrein (activated with thermolysin), sequence (P26262 20-638 limits assumed): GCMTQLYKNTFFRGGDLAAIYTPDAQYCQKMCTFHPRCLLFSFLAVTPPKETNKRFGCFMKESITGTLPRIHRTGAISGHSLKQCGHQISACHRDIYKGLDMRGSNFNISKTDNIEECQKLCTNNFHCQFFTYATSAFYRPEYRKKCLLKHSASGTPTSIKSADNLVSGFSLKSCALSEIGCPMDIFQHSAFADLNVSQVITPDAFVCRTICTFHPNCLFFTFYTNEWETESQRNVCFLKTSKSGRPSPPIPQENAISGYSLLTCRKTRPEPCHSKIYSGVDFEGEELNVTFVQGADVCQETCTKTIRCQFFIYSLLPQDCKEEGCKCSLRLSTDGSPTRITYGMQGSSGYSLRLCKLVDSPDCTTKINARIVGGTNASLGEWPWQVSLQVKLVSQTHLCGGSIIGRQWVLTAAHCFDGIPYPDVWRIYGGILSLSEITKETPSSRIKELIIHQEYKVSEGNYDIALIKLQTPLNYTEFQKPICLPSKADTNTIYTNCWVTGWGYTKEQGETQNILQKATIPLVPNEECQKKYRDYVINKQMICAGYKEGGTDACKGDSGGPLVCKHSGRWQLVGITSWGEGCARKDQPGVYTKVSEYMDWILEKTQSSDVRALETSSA

[4] = target: T1, human plasma kallikrein (activated with …); assay: cell-based or functional assay; remark: listed apart in the source
[5] = target: T1, human plasma kallikrein (activated with …); assay: apparent Ki calculated from the enzyme inhibition IC50 (fluorogenic substrate Z-Phe-Arg-AMC) with the Cheng and Prusoff equation

T1 sequence (P03952 20-638 limits assumed): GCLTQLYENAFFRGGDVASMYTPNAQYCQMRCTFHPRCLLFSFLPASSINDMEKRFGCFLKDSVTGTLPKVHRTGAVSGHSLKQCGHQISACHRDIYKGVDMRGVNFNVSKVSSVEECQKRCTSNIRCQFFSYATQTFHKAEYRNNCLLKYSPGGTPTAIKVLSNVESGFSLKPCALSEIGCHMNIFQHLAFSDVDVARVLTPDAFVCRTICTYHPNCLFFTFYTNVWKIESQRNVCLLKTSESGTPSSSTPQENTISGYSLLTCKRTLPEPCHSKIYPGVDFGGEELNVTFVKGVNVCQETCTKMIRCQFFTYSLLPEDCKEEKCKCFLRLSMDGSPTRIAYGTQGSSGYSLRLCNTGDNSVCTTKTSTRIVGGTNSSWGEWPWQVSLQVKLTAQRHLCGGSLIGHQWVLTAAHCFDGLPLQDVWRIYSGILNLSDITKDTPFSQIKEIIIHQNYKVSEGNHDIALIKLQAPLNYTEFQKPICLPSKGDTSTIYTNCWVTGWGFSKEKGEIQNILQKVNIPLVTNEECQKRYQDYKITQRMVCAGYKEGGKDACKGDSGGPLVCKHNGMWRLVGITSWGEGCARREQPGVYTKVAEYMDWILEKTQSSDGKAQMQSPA

Binder	IC50 (nM), residual enzyme activity [1] [nM]	IC50 (nM), residual enzyme activity [2] [nM]	inhibitory activity (residual enzyme activity) (human factor XIa) [µM]	inhibitory activity (residual enzyme activity) (human thrombin) [µM]	inhibitory activity (residual enzyme activity) [3] [µM]	IC50, residual enzyme activity [4] [nM]	Ki [5] [nM]
H-ACSDRFRNCPLWSGTCG-NH2 (linker 2-9-16 via TBMB; SMILES CC(C)C[C@@H]1NC(=O)[C@@H]2CCCN2C(=O)[C@@H]2CSCc3cc(cc(c3)CSC[C@@H](C(=O)NCC(N)=O)NC(=O)[C@H]([C@@H](C)O)NC(=O)CNC(=O)[C@H](CO)NC(=O)[C@H](Cc3c[nH]c4ccccc34)NC1=O)CSC[C@H](NC(=O)[C@H](C)N)C(=O)N[C@@H](CO)C(=O)N[C@@H](CC(=O)O)C(=O)N[C@@H](CCCNC(=N)N)C(=O)N[C@@H](Cc1ccccc1)C(=O)N[C@@H](CCCNC(=N)N)C(=O)N[C@@H](CC(N)=O)C(=O)N2) [TBMB modified synthetic peptide PK2 (bi-cyclic peptide)]	28.6	28.6	> 10	> 10	> 10	–	–
H-ACSTERRYCPIEIFPCG-NH2 (linker 2-9-16 via TBMB; SMILES CC[C@H](C)[C@@H]1NC(=O)[C@H](CCC(=O)O)NC(=O)[C@H]([C@@H](C)CC)NC(=O)[C@@H]2CCCN2C(=O)[C@@H]2CSCc3cc(cc(c3)CSC[C@@H](C(=O)NCC(N)=O)NC(=O)[C@@H]3CCCN3C(=O)[C@H](Cc3ccccc3)NC1=O)CSC[C@H](NC(=O)[C@H](C)N)C(=O)N[C@@H](CO)C(=O)N[C@@H]([C@@H](C)O)C(=O)N[C@@H](CCC(=O)O)C(=O)N[C@@H](CCCNC(=N)N)C(=O)N[C@@H](CCCNC(=N)N)C(=O)N[C@@H](Cc1ccc(O)cc1)C(=O)N2) [TBMB modified synthetic peptide PK4 (bi-cyclic peptide)]	33	33	> 10	> 10	> 10	–	–
H-ACSTERRYCPIEIFPCG-NH2 (cysteine pairing not given here) [linear synthetic peptide PK4 (not TBMB modified)]	7180	7180	–	–	–	–	–
H-ACSDRFRNCPADEALCG-NH2 (cysteine pairing not given here) [linear synthetic peptide PK15 (not TBMB modified)]	> 10000	> 10000	–	–	–	–	–
H-ACSDRFRNCPLWSGTCG-NH2 (cysteine pairing not given here) [linear synthetic peptide PK2 (not TBMB modified)]	> 10000	> 10000	–	–	–	–	–
H-ACSDRFRNCPADEALCG-NH2 (linker 2-9-16 via TBMB; also: one peptide bond in a loop hydrolysed, position not given here) [TBMB modified peptide PK15 hydrolysed in one binding loop by human plasma kallikrein]	–	–	–	–	–	2.2	–
H-ACSDRFRNCPADEALCG-NH2 (linker 2-9-16 via TBMB, Chemically synthesized 17-mer reacted with TBMB; also called conjugate PK15; peptide conjugate PK15) [TBMB modified peptide PK15 (bi-cyclic peptide)]	1.7	1.7	–	–	–	1.6	1.5
